Experiment [1] has as its target Recombinant Human DLL4 (human) (UniProt Q9NR61). The experiment in a line: Biacore SPR.
For experiment [2], the target named is human DLL-4 expressed on the surface of CHO-K1 cells (CHO-DLL-4 cells) (human) (UniProt Q9NR61). In words: flow cytometry (HTFC) on CHO-K1 cells stably expressing DLL-4.
The target is the same in experiment [3]. The experiment in a line: flow cytometry competition; 20 ug/ml FITC-rhNotch-1 on CHO-DLL-4 cells, increasing antibody concentrations.

For 21M18, in experiment [1], the Ka turned out to be 5.86e+08 M⁻¹ and the equilibrium dissociation constant (Kd) was 1.71 nM.
On to anti-DLL-4 antibody OMP21M18 (Oncomed), for which, in experiment [2], the EC50 amounted to 1.7 nM. Further, the IC50 in experiment [3] is 1.72 nM.
